± gives the standard error.
B1: library; numbered along this chain (parent)
chain: MATDAALRRLLRLHRTEIAVAVDSAFPLLHALADHDVVPEDKFQETLHLKEKEGCPQAFHALLSWLLTQDSTAILDFWRVLFKDYNLERYGRLQPILDSFPKDVDLSQPRKGRKPPAVPKALVPPPRLPTKRKASEEARAAAPAALTPRGTASPGSQLKAKPPKKPESSAEQQRLPLGNGIQTMSASVQRAVAMSSGDVPGARGAVEGILIQQVFESGGSKKCIQVGGEFYTPSKFEDSGSGKNKARSSSGPKPLVRAKGAQGAAPGGGEARLGQQGSVPAPLALPSDPQLHQKNEDECAVCRDGGELICCDGCPRAFHLACLSPPLREIPSGTWRCSSCLQATVQEVQPRAEEPRPQEPPVETPLPPGLRSAGEEVRGPPGEPLAGMDTTLVYKHLPAPPSAAPLPGLDSSALHPLLCVGPEGQQNLAPGARCGVCGDGTDVLRCTHCAAAFHWRCHFPAGTSRPGTGLRCRSCSGDVTPAPVEGVLAPSPARLAPGPAKDDTASHEPALHRDDLESLLSEHTFDGILQWAIQSMARPAAPFPS

Variants of: B1
Assay: AIRE transcriptional activation functional score (insulin promoter-GFP; nonsense median 0, synonymous median 1) (normalised score); higher = higher AIRE activity (more reporter activation)
Conditions: with insulin promoter-GFP reporter in HEK293
Experimental: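 Deep mutational scan of full-length human AIRE (codon-optimized cDNA, DT-POPCode NNN libraries over three regions) integrated at a Bxb1 landing pad in HEK293 cells carrying an insulin core promoter-GFP reporter at a Flp-In site. Cells were sorted for the top 10% GFP about 14 days after transfection. Variant frequency log-ratios (select vs non-select, TileSeq) were rescaled so that the nonsense median is 0 and the synonymous median is 1, then averaged over biological replicates.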

First: H30S
Second: S249M
The “AIRE transcriptional activation functional score” value of the first is lower: 0.156 ± 0.39 for the first, 1.28 ± 0.083 for the second.

D103Q and D103P are within error of each other in “AIRE transcriptional activation functional score” value: 0.412 ± 0.12 for the first, -0.105 ± 0.42 for the second.

First: R15Y
Second: E45Y
The “AIRE transcriptional activation functional score” value of the first is lower: -0.904 ± 0.22 for the first, -0.129 ± 0.15 for the second.

G274L and P95L are within error of each other in “AIRE transcriptional activation functional score” value: 1 ± 0.27 for the first, 1.38 ± 0.33 for the second.

Going from E270L to K133M, the “AIRE transcriptional activation functional score” value falls from 1.41 ± 0.26 to -0.0607 ± 0.074.

Compared with P492R, F453L is lower in “AIRE transcriptional activation functional score” value: 0.779 ± 0.22 for the first, 0.17 ± 0.11 for the second.

First: T46V
Second: T391H
The “AIRE transcriptional activation functional score” value of the first is lower: -0.0333 ± 0.38 for the first, 1.17 ± 0.07 for the second.

Going from N295K to E17W, the “AIRE transcriptional activation functional score” value falls from 1.03 ± 0.083 to -0.29 ± 0.14.

First: E17P
Second: G438S
The “AIRE transcriptional activation functional score” value of the first is lower: -0.151 ± 0.34 for the first, 1.24 ± 0.22 for the second.

G438R and Q293G are within error of each other in “AIRE transcriptional activation functional score” value: 1.1 ± 0.31 for the first, 1 ± 0.49 for the second.

G431V and G431T are within error of each other in “AIRE transcriptional activation functional score” value: 1.13 ± 0.14 for the first, 1.21 ± 0.16 for the second.

Going from G431H to G431N, the “AIRE transcriptional activation functional score” value falls from 1.39 ± 0.086 to 0.881 ± 0.19.

Going from G197E to M184I, the “AIRE transcriptional activation functional score” value rises from 0.192 ± 0.079 to 0.983 ± 0.13.

V37G and L81Y are within error of each other in “AIRE transcriptional activation functional score” value: 0.192 ± 0.36 for the first, 0.0857 ± 0.077 for the second.

L81A and L81I are within error of each other in “AIRE transcriptional activation functional score” value: -0.165 ± 0.28 for the first, 0.143 ± 1.1 for the second.

Going from L81M to L81C, the “AIRE transcriptional activation functional score” value rises from -0.00473 ± 0.12 to 0.822 ± 0.12.

Compared with F59R, E171R is higher in “AIRE transcriptional activation functional score” value: -0.191 ± 0.58 for the first, 1.22 ± 0.71 for the second.

P125W and P125I are the same in “AIRE transcriptional activation functional score” value: 1.36 ± 0.14 for the first, 1.36 ± 0.48 for the second.

G421M and T468K are within error of each other in “AIRE transcriptional activation functional score” value: 0.931 ± 0.18 for the first, 0.654 ± 0.15 for the second.

First: Q189A
Second: Q189D
The “AIRE transcriptional activation functional score” value of the first is higher: 1.25 ± 0.12 for the first, 0.724 ± 0.17 for the second.

Going from Q189H to Q189V, the “AIRE transcriptional activation functional score” value falls from 0.892 ± 0.18 to -0.071 ± 0.19.

G204S and I309L are within error of each other in “AIRE transcriptional activation functional score” value: 0.807 ± 0.19 for the first, 0.505 ± 0.26 for the second.

R433F and R433A are within error of each other in “AIRE transcriptional activation functional score” value: 0.678 ± 0.41 for the first, 0.402 ± 0.44 for the second.

G382R and G382I are within error of each other in “AIRE transcriptional activation functional score” value: 1.03 ± 0.32 for the first, 0.702 ± 0.21 for the second.

Compared with T463W, C340H is higher in “AIRE transcriptional activation functional score” value: 1.05 ± 0.021 for the first, 1.46 ± 0.078 for the second.

P466V and A264P are within error of each other in “AIRE transcriptional activation functional score” value: 1.06 ± 0.25 for the first, 0.912 ± 0.16 for the second.

L146F and L146S are within error of each other in “AIRE transcriptional activation functional score” value: 0.9 ± 0.14 for the first, 1.03 ± 0.42 for the second.

First: L414N
Second: S518P
The “AIRE transcriptional activation functional score” value of the first is higher: 1.07 ± 0.054 for the first, 0.384 ± 0.23 for the second.

G408Y and P400T are within error of each other in “AIRE transcriptional activation functional score” value: 1.08 ± 0.083 for the first, 0.851 ± 0.33 for the second.

Going from T334D to P126W, the “AIRE transcriptional activation functional score” value falls from 0.352 ± 0.11 to 0.0843 ± 0.12.

First: S535M
Second: K52R
The “AIRE transcriptional activation functional score” value of the first is lower: -0.462 ± 0.48 for the first, 0.664 ± 0.35 for the second.

G435T and E137C are within error of each other in “AIRE transcriptional activation functional score” value: 0.0827 ± 0.33 for the first, 0.524 ± 0.46 for the second.

Going from H396G to R445D, the “AIRE transcriptional activation functional score” value falls from 0.899 ± 0.12 to 0.596 ± 0.048.

Compared with Q534P, Q534M is higher in “AIRE transcriptional activation functional score” value: 0.0913 ± 0.28 for the first, 0.598 ± 0.038 for the second.

Compared with A61D, G91V is higher in “AIRE transcriptional activation functional score” value: 0.176 ± 0.057 for the first, 0.766 ± 0.38 for the second.

L444V and C311G are within error of each other in “AIRE transcriptional activation functional score” value: 1.13 ± 0.18 for the first, 0.921 ± 0.24 for the second.

E363S and P368S are within error of each other in “AIRE transcriptional activation functional score” value: 1.04 ± 0.22 for the first, 1.27 ± 0.2 for the second.

Compared with A152G, S64E is lower in “AIRE transcriptional activation functional score” value: 0.815 ± 0.37 for the first, -0.72 ± 0.23 for the second.

Going from S64W to L66C, the “AIRE transcriptional activation functional score” value falls from 0.42 ± 0.18 to -0.733 ± 0.54.

Going from V393M to L11S, the “AIRE transcriptional activation functional score” value falls from 0.98 ± 0.089 to 0.17 ± 0.34.

Compared with Q530L, Q530H is higher in “AIRE transcriptional activation functional score” value: -0.018 ± 0.14 for the first, 1.21 ± 0.032 for the second.

P350F was tested, and the “AIRE transcriptional activation functional score” value was 1.25 ± 0.27.

— the supplement of paper PMC12667976
